We go through five substances from publication PMC9369017.

For test [1], the target named is hexahistidine tagged RBD WT (SARS CoV-2, isolate Wuhan-Hu-1, aa residues 319-541) (SARS-CoV-2) (UniProt P0DTC2). As to the kind of experiment: peptide or protein array.
For test [2], the target named is SARS-CoV-2 spike protein on Ramos-S cells (SARS-CoV-2) (UniProt P0DTC2). As to the kind of experiment: flow cytometry on cells. (Flow cytometry measures light scatter and fluorescence of single cells or particles in a stream.)
A further test addresses EflACE2-Fc-WT (human) (UniProt Q9BYF1). As to the kind of experiment: BLI. Background: In BLI a coated tip is dipped into the sample, and binding shifts an interference pattern.

Take “EflACE2-Fc-WT (from UniProt Q9BYF1 19-740) (Fc fusion)”: the IC50 in test [1] stood at 10 nM. The substance further came in with a median fluorescence intensity in test [2] of 19600.

With “SARS-CoV-2 spike RBD (analyte of the BLI) (from UniProt P0DTC2) (domain or fragment)”, the Kd with EflACE2-Fc-WT (human) was 0.7 nM.

Turning to “trACE2-Fc WT (from UniProt Q9BYF1 19-615) (Fc fusion)”, the IC50 in test [1] was found to be 114 nM. In test [2], the median fluorescence intensity is 15500.

The substance “flACE2-Fc-WT (from UniProt Q9BYF1 19-740) (Fc fusion)” gave a concentration for half-maximal inhibition (IC50) in test [1] of 80 nM. In test [2], this substance returned a median fluorescence intensity of 17200.

Take “trACE2-Fc-kif (from UniProt Q9BYF1 19-615) (Fc fusion)”: in test [2], the median fluorescence intensity is 16400.

Broadly, the IC50 is the concentration needed to halve the response being measured. A high value points to weaker potency. What is called Kd is the equilibrium constant for the complex coming apart.
